The text below walks through data of the supplement of paper PMC12764529.

± gives the half width of the 95% confidence interval.

A short description of data set [1]: folding stability dG unfold from trypsin proteolysis; higher = more stable. The gist of the method:
(§1)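 Unfolding free energy was derived, per protease or combined, by relating Bayesian-fitted K50 values from sequencing counts to a sequence-predicted unfolded-state K50 and a shared folded-state K50. The underlying digests exposed cysteine-free mini-proteins under 80 residues, in a PA-tagged cDNA display construct, to trypsin and chymotrypsin at 11 threefold-diluted concentrations and to a no-protease condition. A filter kept only designs with AlphaFold2 dimer inter-PAE above 15.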

Data set [2] can be described thus: folding stability dG unfold (combined trypsin and chymotrypsin); higher = more stable. The gist of the method: as §1
The nature of data set [3]: folding stability dG unfold from chymotrypsin proteolysis; higher = more stable. The gist of the method:
as §1

As to “SAGGSAGGKIDLKDLKIVKIETVKNENGETFYRVVIEVDGKKIVLTVPENMSLEELLKKLKELSSAGGSAGG [r6_232_TrROS_Hall]”, the “folding stability dG unfold” value in data set [1] stood at 3.36 ± 0.13 kcal/mol; in data set [2] it was 4.07 ± 0.081 kcal/mol; in data set [3], 4.22 ± 0.055 kcal/mol.
Consider “SAGGSAGGKIKLDGKEIVIVMSKEEKEKIAKELKEKFPNVKIKVVEGMSEEEAAKKADLVIVFDSAGGSAGG [r6_679_TrROS_Hall]”, for which the figures for the “folding stability dG unfold” value in data set [1], in data set [2] and in data set [3] were -0.142 ± 0.18 kcal/mol, -0.269 ± 0.39 kcal/mol and 0.0544 ± 0.23 kcal/mol, respectively.
Regarding “SAGGSAGGKIKPGEKVKVKVKIKNKNGEVFEATATVVDGKIFIEVDGKIYEISADDIEEIEVEPSAGGSAGG [r6_132_TrROS_Hall]”, the “folding stability dG unfold” value in data set [1] turned out to be 1.47 ± 0.042 kcal/mol; in data set [2] it was 2.37 ± 0.22 kcal/mol; in data set [3] it was 2.92 ± 0.099 kcal/mol.
On the same counts, the results for “SAGGSAGGKIKVEIEYNGEKKEMTLDEIKALLKKNLPPNATIRVKKNGKTIPLKKVKVKKLKKKSAGGSAGG [r6_936_TrROS_Hall]” are 1.08 ± 0.069 kcal/mol, 1.35 ± 0.18 kcal/mol and 1.65 ± 0.15 kcal/mol.
“SAGGSAGGKIKVEYNPENNMYRVTIKLPGGKIKIYIPPGQTEEQGEKNVKHMAKELLKKNGIKISAGGSAGG [r6_679_TrROS]”: the entries for the “folding stability dG unfold” value in data set [1], in data set [2] and in data set [3] were -0.0228 ± 0.46 kcal/mol, 1.17 ± 0.44 kcal/mol and 1.47 ± 0.14 kcal/mol, respectively.
The corresponding values for “SAGGSAGGKIPPNMEIEPWRFGGKPYFLIRMPNGSYQVFEFKGDKLKIKETIPVPPGDWILIKFSAGGSAGG [r6_476_TrROS]” are 1.48 ± 0.04 kcal/mol, 1.81 ± 0.14 kcal/mol and 1.98 ± 0.16 kcal/mol.
The corresponding values for “SAGGSAGGKITITLPGAEIVSVEESEDGKTITITVRLENGELLKITLKRVNGKWYITKIELLKPSAGGSAGG [r6_718_TrROS_Hall]” are 3.54 ± 0.086 kcal/mol, 4.34 ± 0.068 kcal/mol and 4.524 ± 0.038 kcal/mol.
With “SAGGSAGGKKFKPGQVVLDPKTKELYVIKGEVTVKEDGSLSIKVEKVKLPKPKKLTKEQLEKLKSAGGSAGG [r6_771_TrROS_Hall]”, the “folding stability dG unfold” value in data set [1] is 0.687 ± 0.067 kcal/mol; in data set [2], 0.783 ± 0.16 kcal/mol; in data set [3], 0.613 ± 0.23 kcal/mol.
The corresponding values for “SAGGSAGGKKIRIRIPLPDGTWVEVEVYFSEDGIYSFYIPPTGKLVLIDVGENGIKITIIDLPPSAGGSAGG [r6_58_TrMRF]” are 4.1 ± 0.32 kcal/mol, 4.38 ± 0.43 kcal/mol and 4.47 ± 0.27 kcal/mol.
Turning to “SAGGSAGGKKKKKKKKKYYTFVLKVKEKDLTPEEIKKLFPNVKIEKKDGYLVITVKVNGKEIKFSAGGSAGG [r6_738_TrROS_Hall]”, the “folding stability dG unfold” value amounted to 1.43 ± 0.19 kcal/mol in data set [1], 2.11 ± 0.31 kcal/mol in data set [2] and 2.66 ± 0.12 kcal/mol in data set [3].
The corresponding values for “SAGGSAGGKKKVLILPKGKKKEYTIEEAKKILKEKLPENAKVRLLETGKEYPVKDLLKKLGIDLSAGGSAGG [r6_936_TrMRF]” are -0.276 ± 0.28 kcal/mol, -0.207 ± 0.45 kcal/mol and -0.411 ± 0.65 kcal/mol.
For the sequence “SAGGSAGGKKKVLLVKVEIELPNGEKLELVAESEEEALEALKKLLEKKGLKIKKVEIVELEEKESAGGSAGG [r6_405_TrROS_Hall]”, the “folding stability dG unfold” value in data set [1] is 1.64 ± 0.071 kcal/mol; in data set [2] it was 2.17 ± 0.077 kcal/mol; in data set [3], 2.41 ± 0.051 kcal/mol.
Regarding “SAGGSAGGKKTVEIEMTVDELLAALKSLSEEELKNVKIIGKDGKEFTLEDLEKNPGKIYKIEVKSAGGSAGG [r6_428_TrROS_Hall]”, the “folding stability dG unfold” value in data set [1] was determined as 0.694 ± 0.07 kcal/mol; in data set [2], 1.82 ± 0.16 kcal/mol; in data set [3] it was 2.23 ± 0.074 kcal/mol.
On the same counts, the results for “SAGGSAGGKKVYEIKGLTPEQIRALVKENKGKVTIYYKDGKKEEKTIKEGDEIAPGETVYIEVESAGGSAGG [r6_303_TrROS_Hall]” are 0.858 ± 0.11 kcal/mol, 1.56 ± 0.21 kcal/mol and 1.74 ± 0.13 kcal/mol.
On the same counts, the results for “SAGGSAGGKLENLPENVTEVRIEKNENGEYTIYVRNKETNEYVKLKVEKKDGEWKIVEKEVFPKSAGGSAGG [r6_937_TrROS_Hall]” are 2.09 ± 0.12 kcal/mol, 2.74 ± 0.26 kcal/mol and 3.02 ± 0.047 kcal/mol.
On the same counts, the results for “SAGGSAGGKLPKNIEKIEFNKKTNIIKVKVKSLEDLKKLAEKLNFEIVSVEEKDGYIYIKIKKKSAGGSAGG [r6_380_TrROS_Hall]” are 1.86 ± 0.038 kcal/mol, 2.47 ± 0.081 kcal/mol and 2.796 ± 0.027 kcal/mol.
With “SAGGSAGGKLVLKIKIYNKKTKKVYEFEIEADSLEELKEALKKLGLPKDVKIVSVELRPLDEEPSAGGSAGG [r6_23_TrROS_Hall]”, the results for the “folding stability dG unfold” value in data set [1], in data set [2] and in data set [3] were 3.65 ± 0.1 kcal/mol, 4.79 ± 0.092 kcal/mol and 4.96 ± 0.075 kcal/mol, respectively.
On the same counts, the results for “SAGGSAGGKNWRTIPFMIWIPPGAPPIEFEIPLPDGWKVEIEISVVRNPDGWYFIMFSITVQPDSAGGSAGG [r6_510_TrROS]” are 3.12 ± 0.28 kcal/mol, 3.81 ± 0.22 kcal/mol and 3.85 ± 0.17 kcal/mol.
